# Where a chain is given by its changes, count along the chain named. Numbers in names are those of the source.
# B1: N388M-K394R-L432F-L434W-S436N (protein)
# chain: MFLKSLREQINLLKRQGDLRIINRPVDSYLEAAAIIRRSTETKAPVPLMTNIKGYPGCSIVGGLAALSSNPEYPLSRVAMSLGLSTTASAQSIVQYLIDGLKKTPYLPVEIDSNSAPCKQNILRGEDASLAHFPIPQVHQHDGNRYVNTWGVFIVESPDGQWCNWSIQRVQYLNDRQMIALVFPSQHISDIWEEWVKIGKPMPYALVQGCEPIVPYIAGLPLLERNVNEAEYIGALYGKGIEVVKCETHDLRVPASSEVVIEGYFAITREGVEGPFGEFAGYIPNENSLQPILSITAISWQDDPIWPVVAEGKPVDEYHTCSGIGDAAAIQNVLLTANLPVSFVWVPLYSACHLMIVSINRHWRQTHPDLTSEQLTKKVGDVIHQTRMSIKLPRIVVLDDDVDPADTESLLWALATRIHPERKRYFYESCIFPWLNCYSEEERHNRKGKRVIIDALLPENHGAISSFDYAYPDDIKQRVLMHWETDFSHD
# B2: I283T-P284D-N287P-S322T-H384T-N388M-C430N-L432F-L434W-S436N-A463G-Y469D (protein)
# chain: B1 chain with I283T, P284D, N287P, S322T, H384T, R394K, C430N, A463G, Y469D
# B3: N388M-K394R-C430S-L432F-L434W-S436N (protein)
# chain: B1 chain with C430S
# B4: I283T-P284D-N285L-N287P-S322T-N388M-C430N-L432F-L434W-S436N-A463G-Y469D (protein)
# chain: B1 chain with I283T, P284D, N285L, N287P, S322T, R394K, C430N, A463G, Y469D
# B5: I283T-P284D-N287P-S322T-N388M-C430N-L432F-L434W-S436N-A463G-Y469T (protein)
# chain: B1 chain with I283T, P284D, N287P, S322T, R394K, C430N, A463G, Y469T
# B6: N388M-K394R-I395V-C430P-L432F-L434W-S436N (protein)
# chain: B1 chain with I395V, C430P
# B7: I283S-P284D-N287P-S322T-N388M-C430N-L432F-L434W-S436N-A463G-Y469D (protein)
# chain: B1 chain with I283S, P284D, N287P, S322T, R394K, C430N, A463G, Y469D
# B8: I283T-P284D-N287P-S322T-N388M-C430N-L432F-L434W-S436T-A463G-Y469D (protein)
# chain: B1 chain with I283T, P284D, N287P, S322T, R394K, C430N, N436T, A463G, Y469D
# B9: N388M-K394R-C430N-L432F-L434W-S436N (protein)
# chain: B1 chain with C430N
# B10: I283T-P284D-N287P-S288T-S322T-N388M-C430N-L432F-L434W-S436N-A463G-Y469D (protein)
# chain: B1 chain with I283T, P284D, N287P, S288T, S322T, R394K, C430N, A463G, Y469D
# B11: I283T-P284D-N287P-S322T-N388M-E421T-C430N-L432F-L434W-S436N-A463G-Y469D (protein)
# chain: B1 chain with I283T, P284D, N287P, S322T, R394K, E421T, C430N, A463G, Y469D
# B12: I283T-P284D-N287P-S322T-N388M-R422Q-C430N-L432F-L434W-S436N-A463G-Y469D (protein)
# chain: B1 chain with I283T, P284D, N287P, S322T, R394K, R422Q, C430N, A463G, Y469D
# B13: I283T-P284D-N287P-S322T-N388M-P393A-C430N-L432F-L434W-S436N-A463G-Y469D (protein)
# chain: B1 chain with I283T, P284D, N287P, S322T, P393A, R394K, C430N, A463G, Y469D
# B14: I283T-P284D-N287P-S322T-N388M-E421V-C430N-L432F-L434W-S436N-A463G-Y469D (protein)
# chain: B1 chain with I283T, P284D, N287P, S322T, R394K, E421V, C430N, A463G, Y469D
# B15: I283T-P284D-N287P-S322T-N388M-S429A-C430N-L432F-L434W-S436N-A463G-Y469D (protein)
# chain: B1 chain with I283T, P284D, N287P, S322T, R394K, S429A, C430N, A463G, Y469D
# B16: I283T-P284D-N285A-N287P-S322T-N388M-C430N-L432F-L434W-S436N-A463G-Y469D (protein)
# chain: B1 chain with I283T, P284D, N285A, N287P, S322T, R394K, C430N, A463G, Y469D
# B17: I283F-P284D-N287P-S322T-N388M-C430N-L432F-L434W-S436N-A463G-Y469D (protein)
# chain: B1 chain with I283F, P284D, N287P, S322T, R394K, C430N, A463G, Y469D
# B18: I283T-P284D-N287P-S322T-N388M-K423C-C430N-L432F-L434W-S436N-A463G-Y469D (protein)
# chain: B1 chain with I283T, P284D, N287P, S322T, R394K, K423C, C430N, A463G, Y469D
# B19: N388M-K394R-C430S-L432F-L434W-S436A (protein)
# chain: B1 chain with C430S, N436A
# B20: N388M-K394A-C430P-L432F-L434W-S436N (protein)
# chain: B1 chain with R394A, C430P
# B21: N388M-K394H-C430P-L432F-L434W-S436N (protein)
# chain: B1 chain with R394H, C430P
# B22: I283T-P284D-N287P-S322T-H384A-N388M-C430N-L432F-L434W-S436N-A463G-Y469D (protein)
# chain: B1 chain with I283T, P284D, N287P, S322T, H384A, R394K, C430N, A463G, Y469D
# B23: N388M-K394R-C430P-L432F-L434W-S436N (protein)
# chain: B1 chain with C430P
# B24: I283T-P284D-N285I-N287P-S322T-N388M-C430N-L432F-L434W-S436N-A463G-Y469D (protein)
# chain: B1 chain with I283T, P284D, N285I, N287P, S322T, R394K, C430N, A463G, Y469D
# B25: N388M-K394C-C430P-L432F-L434W-S436N (protein)
# chain: B1 chain with R394C, C430P
# B26: I283T-P284D-N287P-S322T-N388M-C430N-L432F-L434W-S436N-H444R-A463G-Y469D (protein)
# chain: B1 chain with I283T, P284D, N287P, S322T, R394K, C430N, H444R, A463G, Y469D
# B27: I283T-P284D-N287P-S322T-N388M-R422V-C430N-L432F-L434W-S436N-A463G-Y469D (protein)
# chain: B1 chain with I283T, P284D, N287P, S322T, R394K, R422V, C430N, A463G, Y469D
# B28: N388M-C430A-L432F-L434W-S436N (protein)
# chain: B1 chain with R394K, C430A
# B29: I283T-P284D-N287P-S322T-N388M-C430N-L432F-L434W-S436N-E459P-A463G-Y469D (protein)
# chain: B1 chain with I283T, P284D, N287P, S322T, R394K, C430N, E459P, A463G, Y469D
# B30: K394R-C430P-L432F-L434W-S436N (protein)
# chain: B1 chain with M388N, C430P
# B31: H141Y-N388M-K394R-C430P-L432F-L434W-S436N (protein)
# chain: B1 chain with H141Y, C430P
# B32: N388M-K394R-C430P-L432F-L434W-S436A (protein)
# chain: B1 chain with C430P, N436A
# B33: N388Q-C430P-L432F-L434W-S436N (protein)
# chain: B1 chain with M388Q, R394K, C430P
# B34: I283T-P284D-N287P-S322T-N388M-R422F-C430N-L432F-L434W-S436N-A463G-Y469D (protein)
# chain: B1 chain with I283T, P284D, N287P, S322T, R394K, R422F, C430N, A463G, Y469D
# B35: K394R-C430S-L432F-L434W-S436N (protein)
# chain: B1 chain with M388N, C430S
# B36: N388M-K394R-C430K-L432F-L434W-S436N (protein)
# chain: B1 chain with C430K
# Test system: 3-methylcrotonic acid
# Type: biochemical, Yersinia frederiksenii
# Set-up: key: “+” representing a low increase in activity; “++++” representing a high increase in activity
row,Molecule,Activity relative to WT
1,B1,+
2,B2,++++
3,B3,+
4,B4,++++
5,B5,++++
6,B6,+
7,B7,++++
8,B8,++++
9,B9,+
10,B10,++++
11,B11,++++
12,B12,++++
13,B13,++++
14,B14,++++
15,B15,++++
16,B16,++++
17,B17,++++
18,B18,++++

row,Molecule,Activity relative to WT
1,B19,+
2,B20,+
3,B21,+
4,B22,++++
5,B23,+
6,B24,++++
7,B25,+
8,B26,++++
9,B27,++++
10,B28,+
11,B29,++++
12,B30,+
13,B31,+
14,B32,+
15,B33,+
16,B34,++++
17,B35,+
18,B36,+

# From patent publication US20250327097A1, “ORGANISMS PRODUCING LESS CROTONIC ACID” (Global Bioenergies, priority 2021, published 2025)
